Test results as given in US20200317779A1.
Substitutions are numbered along the chain they refer to.

B1: G05 (antibody, human IgG1, lambda, L234A L235A, V domains shown)
VH: EVQLVESGGGLVQPGGSLKLSCAASGFTFNTYAMNWVRQASGKGLEWVARIRSKYNNYATYYADSVKDRFTISRDDSQSTAYLQMNSLKTEDTAVYYCVRHGNFGNSYVSWFAYWGQGTLVTVSS
VL: QAVVTQEPSLTVSPGGTVTLTCRSSTGAVTTSNYANWFQQKPGQAPRGLIYGTNKRAPWTPARFSGSLLGGKAALTLSGAQPEDEAEYYCALWYSNLWVFGGGTKLTVLG
B2: B04 (antibody, human IgG1, lambda, L234A L235A, V domains shown)
VH: B1 VH with A49G, Q78K, S79N, A81L
VL: B1 VL with G48T, Y51G, G71D
B3: H08 (antibody, human IgG1, lambda, L234A L235A, V domains shown)
VH: B1 VH with A81L
VL: B1 VL with Y51G, G71D
B4: A13 (antibody, human IgG1, lambda, L234A L235A, V domains shown)
VH: B1 VH with A49G, Q78K, S79N
VL: B1 VL with F38V
B5: B13 (antibody, human IgG1, lambda, L234A L235A, V domains shown)
VH: B1 VH with A49G, Q78K, S79N, A81L
VL: B1 VL with F38V
B6: H03 (antibody, human IgG1, lambda, L234A L235A, V domains shown)
VH: B1 VH with A81L
VL: B1 VL with G48T, Y51G
B7: G08 (antibody, human IgG1, lambda, L234A L235A, V domains shown)
VH: B1 VH
VL: B1 VL with Y51G, G71D
B8: H10 (antibody, human IgG1, lambda, L234A L235A, V domains shown)
VH: B1 VH with A81L
VL: B1 VL with F38V, G48T, G71D
B9: H02 (antibody, human IgG1, lambda, L234A L235A, V domains shown)
VH: B1 VH with A81L
VL: B1 VL with G48T, G71D
B10: G10 (antibody, human IgG1, lambda, L234A L235A, V domains shown)
VH: B1 VH
VL: B1 VL with F38V, G48T, G71D
B11: H07 (antibody, human IgG1, lambda, L234A L235A, V domains shown)
VH: B1 VH with A81L
VL: B1 VL with Y51G
B12: H01 (antibody, human IgG1, lambda, L234A L235A, V domains shown)
VH: B1 VH with A81L
VL: B1 VL with G48T
B13: H11 (antibody, human IgG1, lambda, L234A L235A, V domains shown)
VH: B1 VH with A81L
VL: B1 VL with F38V, G48T, Y51G
B14: G12 (antibody, human IgG1, lambda, L234A L235A, V domains shown)
VH: B1 VH
VL: B1 VL with F38V, G48T, Y51G, G71D
B15: A02 (antibody, human IgG1, lambda, L234A L235A, V domains shown)
VH: B1 VH with A49G, Q78K, S79N
VL: B1 VL with G48T, G71D
B16: B03 (antibody, human IgG1, lambda, L234A L235A, V domains shown)
VH: B1 VH with A49G, Q78K, S79N, A81L
VL: B1 VL with G48T, Y51G
B17: A11 (antibody, human IgG1, lambda, L234A L235A, V domains shown)
VH: B1 VH with A49G, Q78K, S79N
VL: B1 VL with F38V, G48T, Y51G
B18: H12 (antibody, human IgG1, lambda, L234A L235A, V domains shown)
VH: B1 VH with A81L
VL: B1 VL with F38V, G48T, Y51G, G71D
B19: G11 (antibody, human IgG1, lambda, L234A L235A, V domains shown)
VH: B1 VH
VL: B1 VL with F38V, G48T, Y51G
B20: B10 (antibody, human IgG1, lambda, L234A L235A, V domains shown)
VH: B1 VH with A49G, Q78K, S79N, A81L
VL: B1 VL with F38V, G48T, G71D
B21: G09 (antibody, human IgG1, lambda, L234A L235A, V domains shown)
VH: B1 VH
VL: B1 VL with F38V, G48T
B22: B09 (antibody, human IgG1, lambda, L234A L235A, V domains shown)
VH: B1 VH with A49G, Q78K, S79N, A81L
VL: B1 VL with F38V, G48T
B23: A12 (antibody, human IgG1, lambda, L234A L235A, V domains shown)
VH: B1 VH with A49G, Q78K, S79N
VL: B1 VL with F38V, G48T, Y51G, G71D
B24: G14 (antibody, human IgG1, lambda, L234A L235A, V domains shown)
VH: B1 VH
VL: B1 VL with F38V, G71D
B25: H14 (antibody, human IgG1, lambda, L234A L235A, V domains shown)
VH: B1 VH with A81L
VL: B1 VL with F38V, G71D
B26: A03 (antibody, human IgG1, lambda, L234A L235A, V domains shown)
VH: B1 VH with A49G, Q78K, S79N
VL: B1 VL with G48T, Y51G
B27: H13 (antibody, human IgG1, lambda, L234A L235A, V domains shown)
VH: B1 VH with A81L
VL: B1 VL with F38V
B28: H05 (antibody, human IgG1, lambda, L234A L235A, V domains shown)
VH: B1 VH with A81L
VL: B1 VL
B29: B05 (antibody, human IgG1, lambda, L234A L235A, V domains shown)
VH: B1 VH with A49G, Q78K, S79N, A81L
VL: B1 VL
B30: G13 (antibody, human IgG1, lambda, L234A L235A, V domains shown)
VH: B1 VH
VL: B1 VL with F38V
B31: G06 (antibody, human IgG1, lambda, L234A L235A, V domains shown)
VH: B1 VH
VL: B1 VL with G71D
B32: H04 (antibody, human IgG1, lambda, L234A L235A, V domains shown)
VH: B1 VH with A81L
VL: B1 VL with G48T, Y51G, G71D
B33: B06 (antibody, human IgG1, lambda, L234A L235A, V domains shown)
VH: B1 VH with A49G, Q78K, S79N, A81L
VL: B1 VL with G71D
B34: H06 (antibody, human IgG1, lambda, L234A L235A, V domains shown)
VH: B1 VH with A81L
VL: B1 VL with G71D
B35: B01 (antibody, human IgG1, lambda, L234A L235A, V domains shown)
VH: B1 VH with A49G, Q78K, S79N, A81L
VL: B1 VL with G48T
B36: G07 (antibody, human IgG1, lambda, L234A L235A, V domains shown)
VH: B1 VH
VL: B1 VL with Y51G
B37: B12 (antibody, human IgG1, lambda, L234A L235A, V domains shown)
VH: B1 VH with A49G, Q78K, S79N, A81L
VL: B1 VL with F38V, G48T, Y51G, G71D
B38: H09 (antibody, human IgG1, lambda, L234A L235A, V domains shown)
VH: B1 VH with A81L
VL: B1 VL with F38V, G48T
B39: A14 (antibody, human IgG1, lambda, L234A L235A, V domains shown)
VH: B1 VH with A49G, Q78K, S79N
VL: B1 VL with F38V, G71D
B40: B11 (antibody, human IgG1, lambda, L234A L235A, V domains shown)
VH: B1 VH with A49G, Q78K, S79N, A81L
VL: B1 VL with F38V, G48T, Y51G
B41: B02 (antibody, human IgG1, lambda, L234A L235A, V domains shown)
VH: B1 VH with A49G, Q78K, S79N, A81L
VL: B1 VL with G48T, G71D

The binders below were run against recombinant cynomolgus monkey CD3ε/δ heterodimer (cynomolgus monkey) (UniProt Q95LI5) (assay: ELISA, coated CD3ε/δ).
Chain of recombinant cynomolgus monkey CD3ε/δ heterodimer (cynomolgus monkey) (Q95LI5 22-117, stated change not applied, chain 1 of 2): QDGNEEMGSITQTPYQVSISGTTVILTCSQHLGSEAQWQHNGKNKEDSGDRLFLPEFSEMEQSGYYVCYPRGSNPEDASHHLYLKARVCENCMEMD
Chain of recombinant cynomolgus monkey CD3ε/δ heterodimer (cynomolgus monkey) (Q95LI8 22-105, stated change not applied, chain 2 of 2, further chain): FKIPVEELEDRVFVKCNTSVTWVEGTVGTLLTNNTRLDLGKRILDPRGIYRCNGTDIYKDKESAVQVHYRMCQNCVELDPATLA

Absorbance (450 nm) | Binder
0.072 | B1
0.059 | B2
0.136 | B3
0.154 | B4
0.156 | B5
0.085 | B6
0.119 | B7
0.077 | B8
0.08 | B9
0.079 | B10
0.09 | B11
0.154 | B12
0.142 | B13
0.065 | B14
0.068 | B15
0.091 | B16
0.105 | B17
0.083 | B18
0.08 | B19
0.076 | B20
0.079 | B21

Absorbance (450 nm) | Binder
0.099 | B22
0.068 | B23
0.099 | B24
0.094 | B25
0.094 | B26
0.196 | B27
0.061 | B28
0.1 | B29
0.242 | B30
0.078 | B31
0.068 | B32
0.143 | B33
0.101 | B34
0.071 | B35
0.316 | B36
0.072 | B37
0.113 | B38
0.113 | B39
0.107 | B40
0.072 | B41

Each binder was assayed against recombinant human CD3ε/δ heterodimer (human) (UniProt P07766) (assay: ELISA, coated CD3ε/δ).
Chain of recombinant human CD3ε/δ heterodimer (human) (P07766 23-126, stated change not applied, chain 1 of 2): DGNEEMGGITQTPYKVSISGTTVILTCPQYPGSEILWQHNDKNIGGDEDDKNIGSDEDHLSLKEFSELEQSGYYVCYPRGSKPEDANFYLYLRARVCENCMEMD
Chain of recombinant human CD3ε/δ heterodimer (human) (P04234 22-105, stated change not applied, chain 2 of 2, further chain): as the sequence (Q95LI8 22-105, stated change not applied, chain 2 of 2, further chain) above, with V5I, K15N, V20I, T32S, N33D, N34I, A64T, N74S, L83V counted along it

Absorbance (450 nm) | Binder
0.109 | B1
0.087 | B2
0.118 | B3
0.172 | B4
0.169 | B5
0.113 | B6
0.137 | B7
0.088 | B8
0.111 | B9
0.099 | B10
0.11 | B11
0.121 | B12
0.122 | B13
0.085 | B14
0.098 | B15
0.126 | B16
0.122 | B17
0.099 | B18
0.104 | B19
0.098 | B20
0.106 | B21

Absorbance (450 nm) | Binder
0.096 | B22
0.097 | B23
0.105 | B24
0.096 | B25
0.132 | B26
0.175 | B27
0.078 | B28
0.102 | B29
0.265 | B30
0.118 | B31
0.077 | B32
0.138 | B33
0.134 | B34
0.097 | B35
0.118 | B36
0.098 | B37
0.141 | B38
0.125 | B39
0.132 | B40
0.086 | B41
